These results are taken from patent publication US20250346685A1 (published 2025).

Residue numbers refer to the chain shown, from its start.

For assay [1], the target named is T1, human CD3 on T cells (Jurkat cells; human peripheral blood CD4+ and CD8+ T-cells) (human, UniProt P07766 23-207).
T1 construct: whole, on cells; also called CD4T; CD4 + T
The assay can be described thus: flow cytometry on Jurkat cells. The protocol:
Jurkat cells in logarithmic growth phase were blocked with 3% BSA for 30 min, added to 96-well U-plate at 5×10^4 cells per well, centrifuged to discard the supernatant, and added with 50 μL of gradient diluted antibody (antibody concentration:from 30 μg/mL, with 3-fold dilution for 5 gradients) per well, and incubated at 4° C. for 1 hour. After washing off the primary antibody, a 1:300 dilution of Alexa Fluro647 labeled goat anti-human IgG Fc (Jackson ImmunoResearch, 109-606-170) was added to the secondary antibody, incubated for 45 min at 4° C., and, after washing, resuspended in 50 μL of PBS per well for FACS (iQue, intellicyt) detection.

The target of assay [2] is T2, Cynomolgus monkey CD3εγ-Fc heterodimer (cynomolgus monkey).
T2 construct: also called cynomolgus monkey CD3εγ protein
T2 chain 1: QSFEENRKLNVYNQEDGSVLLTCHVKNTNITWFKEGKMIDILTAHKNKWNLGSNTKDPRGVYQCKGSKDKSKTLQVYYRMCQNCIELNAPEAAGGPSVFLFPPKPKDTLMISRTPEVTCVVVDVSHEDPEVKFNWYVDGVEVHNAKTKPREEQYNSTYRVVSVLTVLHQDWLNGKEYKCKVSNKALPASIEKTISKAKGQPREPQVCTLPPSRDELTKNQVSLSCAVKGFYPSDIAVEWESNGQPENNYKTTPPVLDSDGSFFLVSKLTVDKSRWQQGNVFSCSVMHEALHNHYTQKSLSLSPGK
T2 chain 2: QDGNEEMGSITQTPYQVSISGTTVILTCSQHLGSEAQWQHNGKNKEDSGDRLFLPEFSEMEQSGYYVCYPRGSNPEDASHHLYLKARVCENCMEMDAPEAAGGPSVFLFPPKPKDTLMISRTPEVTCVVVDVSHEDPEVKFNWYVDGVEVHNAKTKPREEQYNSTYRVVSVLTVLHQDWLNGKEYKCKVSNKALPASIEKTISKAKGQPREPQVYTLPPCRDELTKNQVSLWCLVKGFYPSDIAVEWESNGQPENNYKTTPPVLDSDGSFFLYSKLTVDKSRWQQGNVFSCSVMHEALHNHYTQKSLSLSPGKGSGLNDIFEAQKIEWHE
Kind of assay: ELISA, coated cynomolgus monkey CD3εγ protein. The protocol:
Human CD3εγ protein and cynomolgus monkey CD3εγ protein were coated separately overnight at 4° C. After blocking with 2% skim milk, different dilutions of CD3 antibody were added to each well and incubated for 1 hour. After the secondary antibody was developed by adding HPR-labeled goat anti-human IgG Fc and TMB solution, the reaction was stopped with concentrated sulfuric acid, and the absorbance was read at 450 nm.

Assay [3] has as its target T3, human CD3εγ-Fc heterodimer (human).
T3 construct: also called human CD3εγ recombinant protein; human CD3εγ protein
T3 chain 1: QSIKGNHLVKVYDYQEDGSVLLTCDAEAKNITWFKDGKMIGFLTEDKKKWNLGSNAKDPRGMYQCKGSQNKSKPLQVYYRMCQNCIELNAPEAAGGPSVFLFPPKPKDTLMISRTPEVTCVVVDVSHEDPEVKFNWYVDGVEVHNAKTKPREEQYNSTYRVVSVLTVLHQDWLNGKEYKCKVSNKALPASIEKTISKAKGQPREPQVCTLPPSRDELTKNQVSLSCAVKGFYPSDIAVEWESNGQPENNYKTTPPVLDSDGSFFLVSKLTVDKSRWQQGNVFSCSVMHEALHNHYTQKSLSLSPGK
T3 chain 2: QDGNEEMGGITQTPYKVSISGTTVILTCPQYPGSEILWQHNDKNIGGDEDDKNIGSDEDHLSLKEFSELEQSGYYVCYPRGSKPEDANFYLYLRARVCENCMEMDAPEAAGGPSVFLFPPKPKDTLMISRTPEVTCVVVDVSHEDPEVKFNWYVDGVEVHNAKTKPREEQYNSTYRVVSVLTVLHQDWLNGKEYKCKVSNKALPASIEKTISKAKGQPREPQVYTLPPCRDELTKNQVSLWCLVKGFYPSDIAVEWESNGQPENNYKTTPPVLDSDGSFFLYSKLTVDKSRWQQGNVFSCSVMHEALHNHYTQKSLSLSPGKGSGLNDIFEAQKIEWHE
Kind of assay: ELISA, coated human CD3εγ recombinant protein. The protocol:
Human CD3εγ recombinant protein was coated overnight at 4° C. After blocking with 2% skim milk, different dilutions of CD3 antibody were added to each well and incubated for 1 hour. After the secondary antibody was developed by adding HPR-labeled goat anti-human IgG Fc and TMB solution, the reaction was stopped with concentrated sulfuric acid and the absorbance was read at 450 nm.

For assay [4], the target named is T4, human CD20 on cells (CHO-human CD20 stably transfected cells; SU-DHL-4, Raji, NALM-6 tumor cells) (human, UniProt P11836 1-297).
T4 construct: whole, on cells; also called Human CD20-CHO; cellular CD20 receptor
T4 sequence (looked up): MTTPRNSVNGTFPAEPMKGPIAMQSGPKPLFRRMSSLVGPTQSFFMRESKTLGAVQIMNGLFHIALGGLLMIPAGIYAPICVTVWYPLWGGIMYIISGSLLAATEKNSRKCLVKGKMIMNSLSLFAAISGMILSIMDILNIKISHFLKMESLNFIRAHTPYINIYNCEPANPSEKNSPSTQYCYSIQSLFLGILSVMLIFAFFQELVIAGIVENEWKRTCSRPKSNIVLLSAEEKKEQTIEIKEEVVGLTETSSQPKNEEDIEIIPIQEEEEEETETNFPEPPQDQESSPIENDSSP
The assay can be described thus: flow cytometry on CHO-human CD20 stably transfected cells. The protocol:
(§1) CHO-human CD20 and CHO-cynomolgus monkey CD20 stably transfected cells prepared in Example 1 in logarithmic growth phase were adjusted to 5×10⁵ cells/ml with 4% calf serum (Hyclone, SH30626.06), 100 μl/well cell suspension was added to 96-well U-plate, 300 g thereof was centrifuged for 5 min, the supernatant was discarded, and 100 μL of gradient diluted antibody (with starting concentration of 1800 nM, 3-fold dilution, 10 gradients) was added to each well and incubated at 4° C. for 60 min. 50 μL/well Alexa Fluro647 labeled goat anti-human IgG Fc (1:300 dilution) was added to the secondary antibody and incubated on ice for 20 min. After washing once, 50 μL/well propidium iodide (PI) solution (1:300) was added, incubated for 5 min, and performed with detection by flow cytometry.

Assay [5] addresses T5, cynomolgus monkey CD20 on CHO stably transfected cells (cynomolgus monkey, UniProt M4ZHZ6 1-297).
T5 construct: whole, on cells; also called Cynomolgus monkey CD20-CHO; CHO-cynomolgus monkey CD20
T5 sequence: T4 sequence (looked up) with S25P, F31L, T51A, A157V, K217R, N226S, I227V, T239V
The assay can be described thus: flow cytometry on CHO-cynomolgus monkey CD20 stably transfected cells. Here is the method: as §1

B1: aCD3-hVH9/VL2 (antibody, human IgG4, V domains shown)
VH: EVQLVESGGGLVQPGGSLRLSCAASGFTFNTYAMNWVRKAPGKGLEWVGRIRSKYNNYATYYADSVKDRFTISRDDSKNSLYLQMNSLKTEDTAVYYCVRHGNFGNSYVSWFAYWGQGTLVTVSS
VL: QAVVTQEPSLTVSPGGTVTLTCRSSTGAVTTSNYANWVQEKPGQAPRGLIGGTNKRAPWTPARFSGSLLGGKAALTLSGAQPEDEAEYYCALWYSNLWVFGGGTKLTVL
notes: also called humanized anti-CD3 antibody hVH9/VL2
Regarding B1, the “affinity (FACS)” value in assay [1] was found to be 25 nM. In addition, the binding result in assay [2] was “binds”. The “affinity (ELISA)” value in assay [3] worked out at 0.44 nM.

B2: aCD3-hVH9/VL5 (antibody, human IgG4, V domains shown)
VH: B1 VH
VL: B1 VL with L77I, S78T, P82A, A91V
notes: also called humanized anti-CD3 antibody hVH9/VL5
For B2, the “affinity (FACS)” value in assay [1] came out at 20 nM. The binding result in assay [2] was “binds”. Moreover, in assay [3], the “affinity (ELISA)” value amounted to 0.42 nM.

B3: CD20 × CD3 κλ001 (bispecific antibody, human IgG4 S228P, kappa, lambda)
light 1: not shown
heavy 1: EVQLLESGGGVVQPGGSLRLSCAASGFTFNDYAMHWVRQAPGKGLEWVSTISWNSGSIGYADSVKGRFTISRDNSKNTLYLQMNSLRAEDTAVYYCAKDIQYGNYYYGMDYWGQGTLVTVSSASTKGPSVFPLAPCSRSTSESTAALGCLVKDYFPEPVTVSWNSGALTSGVHTFPAVLQSSGLYSLSSVVTVPSSSLGTKTYTCNVDHKPSNTKVDKRVESKYGPPCPPCPAPEFEGGPSVFLFPPKPKDTLMISRTPEVTCVVVDVSQEDPEVQFNWYVDGVEVHNAKTKPREEQFNSTYRVVSVLTVLHQDWLNGKEYKCKVSNKGLASSIEKTISKAKGQPREPQVCTLPPSQEEMTKNQVSLSCAVKGFYPSDIAVEWESNGQPENNYKTTPPVLDSDGSFFLVSKLTVDKSRWQEGNVFSCSVMHEALHNHYTQKSLSLSLGK
light 2: QAVVTQEPSLTVSPGGTVTLTCRSSTGAVTTSNYANWVQQKPGQAPRGLIGGTNKRAPWTPARFSGSLLGGKAALTITGAQAEDEAEYYCVLWYSNLWVFGGGTKLTVLGQPKAAPSVTLFPPSSEELQANKATLVCLISDFYPGAVTVAWKADSSPVKAGVETTTPSKQSNNKYAASSYLSLTPEQWKSHRSYSCQVTHEGSTVEKTVAPTECS
heavy 2: EVQLVESGGGLVQPGGSLRLSCAASGFTFNTYAMNWVRQAPGKGLEWVGRIRSKYNNYATYYADSVKDRFTISRDDSKNSLYLQMNSLKTEDTAVYYCVRHGNFGNSYVSWFAYWGQGTLVTVSSASTKGPSVFPLAPCSRSTSESTAALGCLVKDYFPEPVTVSWNSGALTSGVHTFPAVLQSSGLYSLSSVVTVPSSSLGTKTYTCNVDHKPSNTKVDKRVESKYGPPCPPCPAPEFEGGPSVFLFPPKPKDTLMISRTPEVTCVVVDVSQEDPEVQFNWYVDGVEVHNAKTKPREEQFNSTYRVVSVLTVLHQDWLNGKEYKCKVSNKGLASSIEKTISKAKGQPREPQVYTLPPCQEEMTKNQVSLWCLVKGFYPSDIAVEWESNGQPENNYKTTPPVLDSDGSFFLYSKLTVDKSRWQEGNVFSCSVMHEALHNHYTQKSLSLSLGK
notes: also called anti-CD20×CD3 κλ bispecific antibody
Take B3: the EC50 in assay [4] was 10 nM; in assay [5] it was 12 nM.

B4: CD20 × CD3 κλ005 (bispecific antibody, human IgG4 S228P, kappa, lambda)
light 1: not shown
heavy 1: B3 heavy 1
light 2: B3 light 2 with Q40E
heavy 2: B3 heavy 2 with Q39K
notes: Human IgG4 knob-into-hole Fc; charge variants only in the CD3 arm; also called anti-CD20×CD3 κλ bispecific antibody
Regarding B4, the EC50 turned out to be 9 nM in assay [4] and 14 nM in assay [5].
